According to publication PMC5015840:

Target: MBP-OsIAA10 (rice)

B1: RDV P2 in RDV-infected rice plants (natural protein)
chain: MAYPNDVRNVWDVYNVFRDVPNREHLIRDIRNGLVTVRNLTNMLTNMERDDQLIIAQLSNMMKSLSIGVEKAQNELSKLKTTDADRAAVLAAYQTSVLNIERNTMLLTGYFKQLVLDLTGYVGASVYPILPFMITGDQSMMVDSIKINMKNVFDDKHEQEIVLPIHPACFVSTITEDTSSVVYADGDELYSVHVRHATMTMYVNVLGETVETRQLSMIGDSIVPDDFAPSLLILRFSQDSVGEVFYLSHDNMKKFLGYGLEYTDKYSIFDVTRRVSTTRNKIPDGFCSVDGVPYLDGWFIYQPSGISADSNICAIYNSYVLDTLRYITECEVDTLRSVYDQTSSTAFSKTDVLTSSLLTMQSNISALSAATPQLANDVITFDSTDLLSLGTVLTVSNEFTADDTILSTSLAGHCQVDYSEGSPQDKSMSISVSCDSSQLASSTVHSYSADILGHGLKGDRNMNLMINVPGLMNPQKVTVDYVYSDGYKLNFASVVAPGAPFWINATLQLSVSPSAHNMLSKLTPLDNDACPGLKAQANTPVLVSMTINLDDATPALGGEVIQNCVFKIHHGDDVYSFVTDFDVISYTSTSGTNCLKLISSVDITSQLPSDMVIYVMNGSPDAAFISGDSVNMSSVDWHQSTSQTVGNYVYTTMKAYWNVTSYDVEARPYTTYVPGKVNFTAVEHADVFVDDYNTGVNSYVIVNSRIYYKGTPLYIEVPSGSFIKVSYFTSPLKNPTVDTYNAEISRNSAYLIKANASLDSVAAMLNNISNRIDAMERLMEPTRAQQIAGVVSSIGGVISLGMPLLGAIVVTIGTIISIADPDKQGIDYHSVANAFMSWCQYAAVCRYEYGLLKRGDEKLDVLSFMPKRVVSDFKNKPDVISLPELGESVLRGSSTDYLDTGINIIYNDMQLLGQGKLSDWLNKTVSKVENNAANFFERNLDKSLANKEVLPMHARVEITQTEKIGDVYRTTILYTGINEGSYLGGDVFASRLGDKNILRMNGFESGPGRFKAIVESTTEVGNFRVVDWTVSGMSRYEIYAAAGEVYPSKDPSHADVQLLYESIVRDLTTRDGSFVLKHHDVLLLPGQLDAFEELIIKNASNYQYAFIGSNCSKLCA
half-life of MBP-OsIAA10 in the cell-free degradation assay, RDV-infected against mock-inoculated rice extracts: > 2 fold
